This assay has as its target TafA (HAH_0240), mature major subunit of tat-fimbriae (tafi) of Haloarcula hispanica (Haloarcula hispanica). Briefly: co-sedimentation.

As for “TafE (HAH_0239), minor component of tafi of Haloarcula hispanica (natural protein)”, the molar ratio in filament preparations (molecules per 100 molecules of TafA) amounted to 5.
As for “TafC (HAH_0242), minor component of tafi of Haloarcula hispanica (natural protein)”, the figure is 1.

Source of the values: publication doi:10.1101/2023.03.06.531322.
